Experimental data from EP4592317A1 (ABlink Biotech Co., Ltd., dated 2025).
Several values for one entry are separate records, joined by “and”; a condition that tells them apart may be missing. Identical values can stand only once.

Assays:
[1] = target: T1, Human 4-1BB extracellular domain recombinant protein (his-tag) (human, UniProt Q07011 24-186); experiment: ELISA, coated human 4-1BB-his 200 ng/well; antibody 0.014 µg/ml
T1 construct: extracellular domain; also called Human4-1BB, his-tag; human 4-1BB extracellular region recombinant protein; not shown: his-tag

[2] = target: T1, Human 4-1BB extracellular domain …; experiment: ELISA, coated human 4-1BB-his 200 ng/well; antibody 0.12 µg/ml
[3] = target: T2, Mouse 4-1BB extracellular region recombinant protein (his-tag) (mouse, UniProt P20334 24-187); experiment: ELISA, coated mouse 4-1BB-his 200 ng/well; antibody 0 µg/ml (background well)
T2 construct: extracellular domain; also called Mouse4-1BB, his-tag; not shown: his-tag
T2 sequence (looked up): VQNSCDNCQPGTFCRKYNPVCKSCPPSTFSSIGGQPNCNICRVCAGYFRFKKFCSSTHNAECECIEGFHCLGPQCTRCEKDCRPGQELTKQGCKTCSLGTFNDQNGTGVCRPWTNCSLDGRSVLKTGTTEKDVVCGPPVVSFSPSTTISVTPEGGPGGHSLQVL

[4] = target: T1, Human 4-1BB extracellular domain …; experiment: SPR (Biacore 8K), VHH-hFc captured on Protein A chip, human 4-1BB-his as analyte, 25°C, 1:1 fit
[5] = target: T2, Mouse 4-1BB extracellular region …; experiment: ELISA, coated mouse 4-1BB-his 200 ng/well; antibody 0.041 µg/ml
[6] = target: T2, Mouse 4-1BB extracellular region …; experiment: ELISA, coated mouse 4-1BB his-tag 200 ng/well
[7] = target: T3, Monkey 4-1BB extracellular region recombinant protein (his-tag) (monkey); experiment: ELISA, coated monkey 4-1BB-his 200 ng/well; antibody 0.041 µg/ml
T3 construct: extracellular domain; also called Monkey4-1BB, his-tag

[8] = target: T2, Mouse 4-1BB extracellular region …; experiment: ELISA, coated mouse 4-1BB-his 200 ng/well; antibody 0.014 µg/ml
[9] = target: T2, Mouse 4-1BB extracellular region …; experiment: ELISA, coated mouse 4-1BB-his 200 ng/well; antibody 10.0 µg/ml
[10] = target: T1, Human 4-1BB extracellular domain …; experiment: ELISA, coated human 4-1BB-his 200 ng/well; antibody 3.33 µg/ml
[11] = target: T1, Human 4-1BB extracellular domain …; experiment: ELISA, coated human 4-1BB-his 200 ng/well; antibody 0 µg/ml (background well)
[12] = target: T3, Monkey 4-1BB extracellular region …; experiment: ELISA, coated monkey 4-1BB-his 200 ng/well; antibody 0 µg/ml (background well)
[13] = target: T3, Monkey 4-1BB extracellular region …; experiment: ELISA, coated monkey 4-1BB-his 200 ng/well; antibody 0.014 µg/ml
[14] = target: T2, Mouse 4-1BB extracellular region …; experiment: ELISA, coated mouse 4-1BB-his 200 ng/well; antibody 1.11 µg/ml
[15] = target: T3, Monkey 4-1BB extracellular region …; experiment: ELISA, coated monkey 4-1BB-his 200 ng/well; antibody 1.11 µg/ml
[16] = target: T1, Human 4-1BB extracellular domain …; experiment: ELISA, coated human 4-1BB-his 200 ng/well; antibody 10.0 µg/ml
[17] = target: T3, Monkey 4-1BB extracellular region …; experiment: ELISA, coated monkey 4-1BB-his 200 ng/well; antibody 3.33 µg/ml
[18] = target: T3, Monkey 4-1BB extracellular region …; experiment: ELISA, coated monkey 4-1BB-his 200 ng/well; antibody 0.12 µg/ml
[19] = target: T2, Mouse 4-1BB extracellular region …; experiment: ELISA, coated mouse 4-1BB-his 200 ng/well; antibody 0.37 µg/ml
[20] = target: T1, Human 4-1BB extracellular domain …; experiment: ELISA, coated human 4-1BB-his 200 ng/well; antibody 0.041 µg/ml
[21] = target: T1, Human 4-1BB extracellular domain …; experiment: ELISA, coated human 4-1BB-his 200 ng/well
[22] = target: T1, Human 4-1BB extracellular domain …; experiment: ELISA, coated human 4-1BB-his 200 ng/well; antibody 1.11 µg/ml
[23] = target: T2, Mouse 4-1BB extracellular region …; experiment: ELISA, coated mouse 4-1BB-his 200 ng/well; antibody 0.12 µg/ml
[24] = target: T1, Human 4-1BB extracellular domain …; experiment: ELISA, coated human 4-1BB-his 200 ng/well; antibody 0.37 µg/ml
[25] = target: T2, Mouse 4-1BB extracellular region …; experiment: ELISA, coated mouse 4-1BB-his 200 ng/well; antibody 3.33 µg/ml
[26] = target: T3, Monkey 4-1BB extracellular region …; experiment: ELISA, coated monkey 4-1BB-his 200 ng/well; antibody 10.0 µg/ml
[27] = target: T3, Monkey 4-1BB extracellular region …; experiment: ELISA, coated monkey 4-1BB-his 200 ng/well; antibody 0.37 µg/ml
[28] = target: T3, Monkey 4-1BB extracellular region …; experiment: ELISA, coated monkey 4-1BB-his 200 ng/well

absorbance at 450 nm [1]: 0.399
absorbance at 450 nm [2]: 0.562
absorbance at 450 nm [3]: 0.203
Kd [4]: 3.36 nM
koff [4]: 0.000792 s⁻¹
kon [4]: 236000 M⁻¹ s⁻¹
absorbance at 450 nm [5]: 0.182
binding result [6]: no binding (tested: 0.014-10 µg/mL)
absorbance at 450 nm [7]: 0.392
absorbance at 450 nm [8]: 0.188
absorbance at 450 nm [9]: 0.288
absorbance at 450 nm [10]: 1.73
absorbance at 450 nm [11]: 0.119
absorbance at 450 nm [12]: 0.051
absorbance at 450 nm [13]: 0.325
absorbance at 450 nm [14]: 0.214
absorbance at 450 nm [15]: 1.19
absorbance at 450 nm [16]: 2.93
absorbance at 450 nm [17]: 2.05
absorbance at 450 nm [18]: 0.433
absorbance at 450 nm [19]: 0.199
absorbance at 450 nm [20]: 0.451
EC50 [21]: 4.06 µg/mL and 50.8 nM
absorbance at 450 nm [22]: 1.31
absorbance at 450 nm [23]: 0.192
absorbance at 450 nm [24]: 0.732
absorbance at 450 nm [25]: 0.219
absorbance at 450 nm [26]: 3.3
absorbance at 450 nm [27]: 0.707
EC50 [28]: 4.36 µg/mL and 54.5 nM
B1: 137-18 VHH-hFc recombinant antibody (Fc fusion)
chain: QVQLVESGGGLVHPGGSLRLSCAASGFIFSLYTMSWVRQAPGKGLEWVSDINSGGDSTDYADSVKGRFTISRDNAKSTLYLQMNSLKPEDTAVYYCAKDYPLGQREDYWGQGTQVTVSS
notes: VHH fragment inserted into vector pFclG with human IgG1 Fc tag, expressed in HEK293F; also called CD137-18; not shown: human IgG1 Fc tag of the eukaryotic expression vector pFclG
